According to the supplement of paper PMC9732359:
± gives the uncertainty stated by the source.

Assay: protein stability index of a GFP-peptide fusion (yeast GPS) (PSI 1-4); higher = more stable; sorted into four equal gates, so the index is relative within each strain
Method in brief: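 Peptides tiling yeast proteins in 17-residue segments were fused downstream of GFP, with Cherry expressed from the same plasmid. As a pooled library in yeast, mid-log cultures grown in leucine-free medium were sorted into four equal gates by GFP/Cherry fluorescence ratio. Gate plasmids were PCR-amplified and Illumina-sequenced, and barcodes linked reads to strains. Each peptide received a protein stability index equal to the sum of each gate's read frequency times its gate number.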

| Sequence | protein stability index (doa10∆) | protein stability index (pdr5∆) | protein stability index (san1∆) | protein stability index (ubr1∆) |
| --- | --- | --- | --- | --- |
| IPSLQNNIEENLRLLNS [ECM29] | 3.13 ± 0.065 | 3.17 ± 0.061 | 3.34 ± 0.055 | 3.25 ± 0.061 |
| PTSPNYSPTSPSYSPTS [RPO21] | 2.78 ± 0.034 | 2.9 ± 0.031 | 3.064 ± 0.026 | 2.969 ± 0.026 |
| GSDEAYVKDARKDTVSR [RPC40] | 3.23 ± 0.11 | 3.17 ± 0.12 | 3.13 ± 0.061 | 3.35 ± 0.13 |
| QGLAMVEKYAPDVVRSL [RRP42] | 2.25 ± 0.15 | 2.47 ± 0.16 | 2.3 ± 0.15 | 2.72 ± 0.13 |
| YATKDGVAHLLNRFNFQ [QCR2] | 2.45 ± 0.088 | 2.67 ± 0.053 | 1.87 ± 0.29 | 2.6 ± 0.057 |
| LPSGRQDGVLLVALSNE [FAS2] | 2.4 ± 0.087 | 2.52 ± 0.097 | 2.44 ± 0.091 | 1.91 ± 0.13 |
| IWMRGHGTYFLDNMTYS [RRP4] | 2.45 ± 0.06 | 2.38 ± 0.051 | 2.31 ± 0.082 | 2.19 ± 0.054 |
| KETQQYELEFDTPTSGK [BRR2] | 2.99 ± 0.05 | 2.98 ± 0.055 | 3.05 ± 0.041 | 3.08 ± 0.045 |
| IFSYLQFTSSLFKALKV [RGR1] | 1.61 ± 0.059 | 1.3 ± 0.052 | 1.12 ± 0.11 | 1.05 ± 0.056 |
| YLESLFAKQVDVQLERV [IRR1] | 2.49 ± 0.095 | 2.19 ± 0.074 | 2.36 ± 0.12 | 2.5 ± 0.051 |
| YIEDFLLVIGGNQRKIL [YJR042W/NUP85] | 1.59 ± 0.051 | 1.86 ± 0.05 | 1.62 ± 0.078 | 1.71 ± 0.042 |
| LKAKNQEEEGELEHLTK [DSN1] | 3.42 ± 0.076 | 3.35 ± 0.066 | 3.31 ± 0.047 | 3.39 ± 0.047 |
| VSFNGFKLPKKFPPPTP [BRR2] | 2.57 ± 0.07 | 2.9 ± 0.067 | 2.8 ± 0.06 | 2.93 ± 0.052 |
| ETDGKHGKRRSQVVETH [YMR129W/POM152] | 3.27 ± 0.11 | 2.93 ± 0.097 | 3.21 ± 0.056 | 3.11 ± 0.048 |
| LTEGGSILEEKIAVLNN [SMC1] | 3.31 ± 0.22 | 2.85 ± 0.15 | 3.32 ± 0.11 | 2.87 ± 0.28 |
| YKTSKAAQDVWNRADNH [FAS1] | 2.96 ± 0.21 | 2.98 ± 0.17 | 1.71 ± 0.29 | – |
| AFAGSKNDEVLGLLLPI [RPN1] | – | 3.2 ± 0.14 | 3.05 ± 0.17 | 3.19 ± 0.13 |
| VIRMVVLTAAGVERLIF [PRE3] | 2.33 ± 0.17 | 2.99 ± 0.13 | 2.42 ± 0.13 | 3.17 ± 0.14 |
| DPRHIQLLGDVMTYKGE [RPO31] | 2.91 ± 0.07 | 3.17 ± 0.055 | 2.79 ± 0.063 | 3.06 ± 0.048 |
| TFTQLVSSSLYERRFGP [PUP3] | 2.79 ± 0.12 | 2.94 ± 0.16 | 2.73 ± 0.12 | 2.94 ± 0.092 |
| IIFNYVPGPGTKLIQYE [CSL4] | – | 2.99 ± 0.1 | – | 2.84 ± 0.098 |
| KQTDTGITHFRAGMTHE [PRP8] | 2.36 ± 0.055 | 2.61 ± 0.047 | 3.08 ± 0.057 | 2.94 ± 0.037 |

| Sequence | protein stability index (doa10∆) | protein stability index (pdr5∆) | protein stability index (san1∆) | protein stability index (ubr1∆) |
| --- | --- | --- | --- | --- |
| IIPTTLEEQQQLEDESS [YML103C/NUP188] | 1.88 ± 0.081 | 1.66 ± 0.08 | 2.67 ± 0.081 | 2.86 ± 0.099 |
| ETPNQDATYDSALELVG [RPN6] | 2.62 ± 0.088 | 2.86 ± 0.072 | 2.61 ± 0.081 | 2.6 ± 0.1 |
| SNDKFVHVQLLINLKIS [SRB8] | 1.51 ± 0.042 | 1.82 ± 0.045 | 1.6 ± 0.064 | 1.61 ± 0.034 |
| QKKNFLFKPLNKTLTLD [ARP7] | 2.83 ± 0.093 | 2.45 ± 0.14 | 2.08 ± 0.25 | 1.89 ± 0.26 |
| TVKENESDSKLQCHISG [UBP6] | 3.28 ± 0.098 | 3.3 ± 0.11 | 3.05 ± 0.087 | 3.15 ± 0.1 |
| NKTSNNNNVTAVPAATP [SWI1] | 2.84 ± 0.044 | 3.06 ± 0.046 | 2.81 ± 0.032 | 3.07 ± 0.042 |
| ANVVDITNDWEQPCVDI [YJR042W/NUP85] | 3.3 ± 0.071 | 3.41 ± 0.062 | 3.23 ± 0.051 | 3.12 ± 0.06 |
| ITYDKQEPSASQVKDSV [SRP68] | 3.14 ± 0.046 | 3.12 ± 0.062 | 2.98 ± 0.053 | 2.99 ± 0.071 |
| AKRDYIISRLNADFQKP [FAS1] | 3.32 ± 0.13 | 3.07 ± 0.085 | 2.94 ± 0.091 | 3.22 ± 0.077 |
| NLEPLIAKLVAVLNVSP [NUT1] | 1.47 ± 0.064 | 1.38 ± 0.066 | 1.69 ± 0.14 | 1.43 ± 0.057 |
| SGLNRAISTGNWSLKRF [RET1] | 2.56 ± 0.07 | 2.57 ± 0.078 | 2.67 ± 0.087 | 2.41 ± 0.054 |
| MAKCLDNPDQGISDMCR [YCS4] | 3.39 ± 0.19 | 3.55 ± 0.13 | 3.33 ± 0.13 | 3.2 ± 0.15 |
| LPDPKPLPLDLNVQVWH [ITC1] | 2.8 ± 0.064 | 2.72 ± 0.051 | 3.01 ± 0.063 | 2.55 ± 0.038 |
| PKTGKVERSEAISKKDL [SEC65] | 3.63 ± 0.16 | 3.46 ± 0.081 | 3.33 ± 0.14 | 3.23 ± 0.073 |
| FEWDISNSDNCPEEFAE [SNF5] | 3.12 ± 0.11 | 3.19 ± 0.15 | 3.11 ± 0.1 | 3.29 ± 0.072 |
| KPDVTYADVGGLDMQKQ [RPT3] | – | 3.69 ± 0.14 | 3.47 ± 0.24 | 3.35 ± 0.21 |
| SFQKIPLSRINENENFG [YML103C/NUP188] | 2.88 ± 0.15 | 3.12 ± 0.097 | 2.97 ± 0.079 | 3.24 ± 0.1 |
| MAPSAKATAAKKAVVKG [RPL25] | – | 2.56 ± 0.15 | – | – |
| ALFLSKINRPPVSVSRI [RPL18A] | 2.29 ± 0.14 | 1.63 ± 0.076 | 1.6 ± 0.14 | 2.16 ± 0.16 |
| DVAYLLKSESATSQYLK [YGL172W/NUP49] | 2.25 ± 0.14 | 3.21 ± 0.094 | 2.94 ± 0.1 | 3.03 ± 0.11 |
| MKNENANPKKLALMTAH [CDC53] | 2.12 ± 0.039 | 2.33 ± 0.046 | 2.09 ± 0.048 | 1.79 ± 0.032 |
